Assay results from publication PMC5069622, “Crystal structure of human aldehyde dehydrogenase 1A3 complexed with NAD^+ and retinoic acid” (Scientific Reports, 2016).

Biological target: the molecule itself
Experiment: SEC; gel filtration of the purified protein, data not shown; native molecular mass of about 224000 Da

B1: human aldehyde dehydrogenase 1A3 (enzyme, UniProt P47895 1-512, looked up)
chain: MATANGAVENGQPDRKPPALPRPIRNLEVKFTKIFINNEWHESKSGKKFATCNPSTREQICEVEEGDKPDVDKAVEAAQVAFQRGSPWRRLDALSRGRLLHQLADLVERDRATLAALETMDTGKPFLHAFFIDLEGCIRTLRYFAGWADKIQGKTIPTDDNVVCFTRHEPIGVCGAITPWNFPLLMLVWKLAPALCCGNTMVLKPAEQTPLTALYLGSLIKEAGFPPGVVNIVPGFGPTVGAAISSHPQINKIAFTGSTEVGKLVKEAASRSNLKRVTLELGGKNPCIVCADADLDLAVECAHQGVFFNQGQCCTAASRVFVEEQVYSEFVRRSVEYAKKRPVGDPFDVKTEQGPQIDQKQFDKILELIESGKKEGAKLECGGSAMEDKGLFIKPTVFSEVTDNMRIAKEEIFGPVQPILKFKSIEEVIKRANSTDYGLTAAVFTKNLDKALKLASALESGTVWINCYNALYAQAPFGGFKMSGNGRELGEYALAEYTEVKTVTIKLGDKNP
notes: human ALDH1A3, full-length open reading frame amplified from cDNA of the mesenchymal glioma stem cell line 83 and cloned into pDEST17; predicted molecular weight 56108 Da; Crystallised after pre-incubation with 1 mM NAD+ and 1 mM all-trans retinoic acid; No removal of the His tag is described; In the crystal no density for the N-terminal portion and the last four residues; also called ALDH1A3; …
  stoichiometry N: 4
